Assay results from patent US20100260775A1 (Pfizer, published 2010).
Like-named read-outs stand apart in the source and are kept apart here.

B1: 3C (Fab) (Fab, V domains shown)
VH: QVQLQESGPGLVKPSETLSLTCTVSGFSLIGYDLNWIRQPPGKGLEWIGIIWGDGTTDYNSAVKSRVTISKDTSKNQFSLKLSSVTAADTAVYYCARGGYWYATSYYFDYWGQGTLVTVS
VL: DIQMTQSPSSLSASVGDRVTITCRASQSISNNLNWYQQKPGKAPKLLIYYTSRFHSGVPSRFSGSGSGTDFTFTISSLQPEDIATYYCQQERTLPYTFGQGTKLEIKR
B2: 8L2-6D5 (CDR-grafted antibody with framework mutation V71K) (Fab, V domains shown)
VH: QVQLQESGPGLVKPSETLSLTCTVSGFSLIGYDINWIRQPPGKGLEWIGMIWGDGTTDYNSALKSRVTISKDTSKNQFSLKLSSVTAADTAVYYCARGGYYYGTSYYFDYWGQGTLVTVS
VL: DIQMTQSPSSLSASVGDRVTITCRASQDISNHLNWYQQKPGKAPKLLIYYISRFHSGVPSRFSGSGSGTDFTFTISSLQPEDIATYYCQQSKTLPYTFGQGTKLEIKR
B3: H19-L129 (Fab, V domains shown)
VH: QVQLQESGPGLVKPSETLSLTCTVSGFSLIGYDLNWIRQPPGKGLEWIGIIWGDGTTDYNSAVKSRVTISKDTSKNQFSLKLSSVTAADTAVYYCARGGYYYGTSYYFDYWGQGTLVTVS
VL: DIQMTQSPSSLSASVGDRVTITCRASQSISNNLNWYQQKPGKAPKLLIYYTSRFHSGVPSRFSGSGSGTDFTFTISSLQPEDIATYYCQQSKTLPYTFGQGTKLEIKR
B4: antibody E3 (Fab) (Fab, V domains shown)
VH: QVQLQESGPGLVKPSETLSLTCTVSGFSLIGYDLNWIRQPPGKGLEWIGIIWGDGTTDYNSAVKSRVTISKDTSKNQFSLKLSSVTAADTAVYYCARGGYWYATSYYFDYWGQGTLVTVS
VL: DIQMTQSPSSLSASVGDRVTITCRASQSISNNLNWYQQKPGKAPKLLIYYTSRFHSGVPSRFSGSGSGTDFTFTISSLQPEDIATYYCQQEHTLPYTFGQGTKLEIKR

What was measured:
Test in all cases: cell-based or functional assay
[1] = target: T1, rat NGF (rat, UniProt P25427 122-241, limits assumed)
T1 sequence (P25427 122-241 limits assumed): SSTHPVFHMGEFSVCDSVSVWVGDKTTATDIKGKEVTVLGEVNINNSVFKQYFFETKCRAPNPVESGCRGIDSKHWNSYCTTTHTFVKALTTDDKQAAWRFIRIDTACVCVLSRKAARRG

[2] = target: human NGF (human, UniProt P01138 122-241, limits assumed)
Sequence of human NGF (P01138 122-241 limits assumed): as the sequence (P25427 122-241 limits assumed) above, with T3S, V6I, M9R, T37M, A60D, E65D, T92M, D94G, A117V, G120A counted along it

[3] = target: T1, rat NGF; remark: listed apart in the source
[4] = target: T1, rat NGF; remark: listed apart in the source

Row | Molecule | IC50, inhibition of rat NGF-dependent survival of mouse E13.5 trigeminal neurons, 1.5 pM NGF [1] [pM] | IC50, inhibition of rat NGF-dependent survival of mouse E13.5 trigeminal neurons, 15 pM NGF [1] [pM] | IC50, inhibition of human NGF-dependent survival of mouse E13.5 trigeminal neurons, 1.5 pM NGF [2] [pM] | IC50, inhibition of human NGF-dependent survival of mouse E13.5 trigeminal neurons, 15 pM NGF [2] [pM] | IC50, inhibition of rat NGF-dependent survival of mouse E13.5 trigeminal neurons, 1.5 pM NGF [3] [pM] | IC50, inhibition of rat NGF-dependent survival of mouse E13.5 trigeminal neurons, 15 pM NGF [3] [pM] | IC50, inhibition of NGF-dependent survival of mouse E13.5 trigeminal neurons, 15 pM rat NGF [4] [pM]
1 | mouse antibody 911 (Fab) | 34.6 | 161 | 63.5 | 322 |  |  | 
2 | B1 |  |  | 5.6 | 80.9 | 6 | 31.6 | 
3 | B2 |  |  | 462 | 1580 | 169 | 730 | 
4 | B3 |  |  | 9.6 | 60.1 | 6 | 31 | 
5 | B4 |  |  | < 1.2 | < 21 | < 1.3 | < 8.3 | ~31.6
